The target in assay [1] is JR-FL.v6 V3 peptide (HIV-1 clade B isolate JR-FL). The assay is described as follows: SPR. For orientation: In SPR one partner is held on a chip, and binding of the other changes the refractive index at the surface.
Assay [2] shares this target. The assay is described as follows: differential scanning fluorimetry. In general terms: In DSF a fluorescence change marks the thermal transition of the protein.

Among the data in PMC13483476 are Kd and increase of the transition temperature of the Fab when bound to the peptide values, retold here.

As to 19b antigen-binding fragment (Fab), the Kd in assay [1] is 1.74 nM. This substance also had an increase of the transition temperature of the Fab when bound to the peptide in assay [2] of 6.3 °C.

Broadly, the Kd is the equilibrium constant for the complex coming apart.
